We go through one molecule from PMC12561408, “AI‐Driven De Novo Design of Ultra Long‐Acting GLP‐1 Receptor Agonists” (Advanced Science, 2025).

Experiment in all cases: SPR
Holding throughout (conditions): both partners purified

Assay [1] concerns the target T1, GST-peptide fusion protein D41.
T1 construct: source: E. coli BL21 (DE3), GST-peptide fusion; not shown: GST, N-terminal, kept

Assay [2] addresses T2, GST-peptide fusion protein D13.
T2 construct: source: E. coli BL21 (DE3), GST-peptide fusion; not shown: GST, N-terminal, kept

Assay [3] concerns the target T3, GST-peptide fusion protein D44.
T3 construct: source: E. coli BL21 (DE3), GST-peptide fusion; not shown: GST, N-terminal, kept

B1: Human GLP-1R protein (receptor)
chain: RPQGATVSLWETVQKWREYRRQCQRSLTEDPPPATDLFCNRTFDEYACWPDGEPGSFVNVSCPWYLPWASSVPQGHVYRFCTAEGLWLQKDNSSLPWRDLSECEESKRGERSSPEE
One may read the Kd as the constant that tells how readily two partners part at equilibrium. A high value points to weaker binding. For B1, the Kd in assay [1] was 5.19 µM; in assay [2], 8.58 µM; in assay [3] it was 6.78 µM.
